B1: RTP4 (parent)
chain: AFGWFRCSSCQRSWASAQVQILCH
B2: C10orf62 (parent)
chain: GHSHHSHHGHPSHQSHSLPNRRH
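Further: lentivirally expressed fusions sorted by FACS into six bins by GFP to DsRed ratio, PSI derived from sequencing read proportions per bin multiplied by bin number.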

In the first data set the parent is B1. Kind of data set: protein stability index of a GFP-peptide fusion (GPS, HEK-293T) (PSI 1-6); higher = more stable. As to conditions: c terminus: a fixed tail appended.
In the case of AFGWFRCSSCQRSWASAQVQILCY, the protein stability index was 3.39.
On to AFGWFRCSSCQRSWASAQVQILCP, for which the protein stability index turned out to be 3.58.
AFGWFRCSSCQRSWASAQAQILCH: the protein stability index amounted to 1.57.
On to AFGWFRCSSCQRSWASAQHQILCH, for which the protein stability index worked out at 1.59.
Regarding AFGWFRCSSCQRSWASAQIQILCH, the protein stability index is 3.39.
Turning to AFGWFRCSSCQRSWASAQVQWLCH, the protein stability index turned out to be 1.37.
Regarding AFGWFRCSSCQRSWASAQVQLLCH, the protein stability index turned out to be 2.34.
For the variant AFGWFRCSSCQRSWASAQVQSLCH, the protein stability index is 3.43.
Consider AFGWFRCSSCQRSWASAQVQTLCH, for which the protein stability index amounted to 2.9.
Consider AFGWFRCSSCQRSWASAQVQKLCH, for which the protein stability index was determined as 1.03.
For the variant AFGWFRCSSCQRSWASAQVQYLCH, the protein stability index came out at 3.2.
Regarding AFGWFRCSSCQRSWASAQVQQLCH, the protein stability index is 1.62.
With AFGWFRCSSLQRSWASAQVQILCH, the protein stability index amounted to 2.7.
On to AFGWFRCSSGQRSWASAQVQILCH, for which the protein stability index came out at 3.33.
On to AFGWFRCSSRQRSWASAQVQILCH, for which the protein stability index amounted to 2.77.
On to AFGWFRCSSCQRSWASVQVQILCH, for which the protein stability index is 2.19.
Same read-out and setting: the figure for AFGWFRCSSCQRSWASEQVQILCH is 2.93; for AFGWFRCSSCQRSWASIQVQILCH it is 3.06.
Turning to AFGWFRCSSCQRSWASAQVQIGCH, the protein stability index turned out to be 1.41.
Regarding AFGWFRCSSCQRSWASAQVQIDCH, the protein stability index worked out at 1.79.
As to AFGWFRCESCQRSWASAQVQILCH, the protein stability index worked out at 1.83.
As to AFGWFRCDSCQRSWASAQVQILCH, the protein stability index is 3.96.
Turning to AFGWFRCPSCQRSWASAQVQILCH, the protein stability index was determined as 2.27.
Still for that read-out and setting: the figure for AFGWFRCSYCQRSWASAQVQILCH is 3.01; for AFGWFRCSGCQRSWASAQVQILCH it is 1.9.
Same read-out and setting: the figure for AFGWFRCSPCQRSWASAQVQILCH is 2.5; for AFGWFRCSSCQRSWASAWVQILCH it is 2.88; for AFGWFRCSSCQRSWASAAVQILCH it is 2.37.
AFDWFRCSSCQRSWASAQVQILCH: the protein stability index is 1.45.
Regarding AFGWFRCSSCQRSMASAQVQILCH, the protein stability index amounted to 1.1.
On the same count and under the same terms, in the case of AFGWFRCSSCQRSSASAQVQILCH it was 2.45; in that of AFGWFRCSSCQRSHASAQVQILCH, 1.95; in that of AFGWFRCSSCQRSCASAQVQILCH, 3.08.
With AFGWFRCSSCQRSVASAQVQILCH, the protein stability index was determined as 1.36.
Turning to AFGWFRCSSCQRSRASAQVQILCH, the protein stability index was 1.48.
For the variant AFGWFRCSSCQRSWAYAQVQILCH, the protein stability index came out at 1.78.
For the variant AFGWFRCSSCQRSWAEAQVQILCH, the protein stability index came out at 3.11.
For AFGWFRCSSCQRSWAWAQVQILCH, the protein stability index worked out at 1.86.
Still for that read-out and setting: the figure for AFGWFRCSSCQRSWAHAQVQILCH is 3.4.
As to AFGWFRCSSCQRSWWSAQVQILCH, the protein stability index is 2.79.
Turning to AFGWFRCSSCQRSWSSAQVQILCH, the protein stability index was 2.04.
On to AFGWFRCSSCQRIWASAQVQILCH, for which the protein stability index was 1.36.
For AFGWFRCSSCQRHWASAQVQILCH, the protein stability index was 2.36.
The same measure, in the same setting: in the case of AFGWFRCSSCQRVWASAQVQILCH it was 3.12.
Take AFGWFRCSSCQRMWASAQVQILCH: the protein stability index worked out at 2.09.
In the case of AFGWKRCSSCQRSWASAQVQILCH, the protein stability index worked out at 3.49.
On the same count and under the same terms, in the case of AFGWCRCSSCQRSWASAQVQILCH it was 1.77; in that of AFGWFRCSSCQRSWASAQVQILDH, 1.92.
Consider AFGWFRCSSCQRSWASAQVQILEH, for which the protein stability index is 2.8.
As to AFGWFRCSSCQRSWASAQVQILKH, the protein stability index is 2.35.
Regarding AFGWFRCSSCQRSWASAQVQILYH, the protein stability index is 2.81.
With AFGWFRCSSCQRSWASAQVQILQH, the protein stability index worked out at 3.85.
Regarding AFGWFRCSSCQRSWASAQVQILPH, the protein stability index came out at 2.83.
For the variant AFGWFRSSSCQRSWASAQVQILCH, the protein stability index was 3.67.
As for AFGWFRVSSCQRSWASAQVQILCH, the protein stability index was 3.3.
Take AFGWFRCSSCQYSWASAQVQILCH: the protein stability index was 2.83.
The same measure, in the same setting: in the case of AFGWFRCSSCQMSWASAQVQILCH it was 2.86.
Still for that read-out and setting: the figure for AFGWFRCSSCQSSWASAQVQILCH is 2; for AFGWFRCSSCQLSWASAQVQILCH it is 1.65.
For AFGWFRCSSCQISWASAQVQILCH, the protein stability index was found to be 2.33.
On the same count and under the same terms, the figure for AFGWFRCSSCKRSWASAQVQILCH is 3.01.
AFGWFRCSSCRRSWASAQVQILCH: the protein stability index stood at 2.89.
AFGWFRCSSCWRSWASAQVQILCH: the protein stability index was found to be 1.81.
AFGWFRCSSCGRSWASAQVQILCH: the protein stability index was 2.23.
Regarding AFGWFRCSSCDRSWASAQVQILCH, the protein stability index stood at 2.83.
On the same count and under the same terms, the figure for AFGWFRCSSCQRSWASAQVLILCH is 4.4.
As to AFGWFRCSSCQRSWASAQVSILCH, the protein stability index came to 2.84.
In the case of AFGWFRCSSCQRSWASAQVDILCH, the protein stability index is 1.66.
Regarding AFGWFRCSSCQRSWASAQVIILCH, the protein stability index is 2.42.
With GFGWFRCSSCQRSWASAQVQILCH, the protein stability index was 3.21.
With HFGWFRCSSCQRSWASAQVQILCH, the protein stability index was found to be 1.78.
For CFGWFRCSSCQRSWASAQVQILCH, the protein stability index came to 2.22.
On to VFGWFRCSSCQRSWASAQVQILCH, for which the protein stability index turned out to be 2.11.

Another data set covers variants of B2. The data set is described as above. As to conditions: c terminus: native.
Consider GFSHHSHHGHPSHQSHSLPNRRH, for which the protein stability index came to 3.23.
GASHHSHHGHPSHQSHSLPNRRH: the protein stability index turned out to be 3.05.
For the variant GDSHHSHHGHPSHQSHSLPNRRH, the protein stability index came out at 2.97.
As for GGSHHSHHGHPSHQSHSLPNRRH, the protein stability index turned out to be 2.22.
The same measure, in the same setting: the figure for GESHHSHHGHPSHQSHSLPNRRH is 2.36; for LHSHHSHHGHPSHQSHSLPNRRH it is 3.98.
As for EHSHHSHHGHPSHQSHSLPNRRH, the protein stability index turned out to be 2.45.
Consider WHSHHSHHGHPSHQSHSLPNRRH, for which the protein stability index amounted to 3.55.
Consider KHSHHSHHGHPSHQSHSLPNRRH, for which the protein stability index stood at 2.79.
On to AHSHHSHHGHPSHQSHSLPNRRH, for which the protein stability index turned out to be 4.7.
Consider YHSHHSHHGHPSHQSHSLPNRRH, for which the protein stability index was 2.42.
PHSHHSHHGHPSHQSHSLPNRRH: the protein stability index is 3.63.
With DHSHHSHHGHPSHQSHSLPNRRH, the protein stability index was 2.81.
For the variant RHSHHSHHGHPSHQSHSLPNRRH, the protein stability index is 3.44.
For the variant SHSHHSHHGHPSHQSHSLPNRRH, the protein stability index turned out to be 2.81.
Take QHSHHSHHGHPSHQSHSLPNRRH: the protein stability index was determined as 4.66.
As to IHSHHSHHGHPSHQSHSLPNRRH, the protein stability index came out at 3.33.
Take HHSHHSHHGHPSHQSHSLPNRRH: the protein stability index is 2.43.
Still for that read-out and setting: in the case of MHSHHSHHGHPSHQSHSLPNRRH it was 2.19; in that of THSHHSHHGHPSHQSHSLPNRRH, 2.66.
Consider FHSHHSHHGHPSHQSHSLPNRRH, for which the protein stability index turned out to be 3.19.
In the case of NHSHHSHHGHPSHQSHSLPNRRH, the protein stability index was 2.38.
